Data as given in the supplement of paper PMC10567573.

B1: TOR1AIP2 (parent)
chain: DGAGRTWQDSDTVKLLVDLELSYG
B2: ZBTB22 (parent)
chain: HTGLKPYECGVCAKKFMWRDSFMR

Variants of: B1
Test: protein stability index of a GFP-peptide fusion (GPS, HEK-293T) (PSI 1-6); higher = more stable
Conditions: c terminus: a fixed tail appended
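Further: lentivirally expressed fusions sorted by FACS into six bins by GFP to DsRed ratio, PSI derived from sequencing read proportions per bin multiplied by bin number.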

In order of rising protein stability index:
1. Y23F  1.03
2. D18H  1.08
3. Y23A  1.1
4. E20H  1.26
5. G24N  1.26
6. D18M  1.36
7. Y23I  1.36
8. L21T  1.44
9. Y23N  1.45
10. S22W  1.47
11. E20T  1.48
12. D18S  1.52
13. S22I  1.55
14. E20D  1.56
15. S22T  1.56
16. Y23S  1.56
17. V17W  1.58
18. E20Y  1.59
19. L21F  1.6
20. E20R  1.61
21. L21Y  1.62
22. L21E  1.62
23. E20M  1.68
24. S22H  1.7
25. G24E  1.71
26. L21W  1.72
27. G24T  1.73
28. E20S  1.75
29. L21C  1.75
30. Y23H  1.77
31. S22F  1.79
32. D18N  1.8
33. G24D  1.8
34. S22R  1.84
35. S22C  1.85
36. Y23E  1.85
37. S22L  1.89
38. Y23D  1.91
39. E20K  1.93
40. D18K  1.98
41. L21D  2
42. L21A  2.01
43. L21K  2.02
44. L19I  2.03
45. L21N  2.07
46. E20N  2.08
47. E20L  2.12
48. E20G  2.13
49. S22M  2.13
50. Y23R  2.15
51. D18C  2.22
52. E20Q  2.23
53. L19V  2.27
54. S22E  2.33
55. E20F  2.34
56. L21Q  2.35
57. S22Y  2.35
58. V17Y  2.39
59. L19F  2.43
60. G24A  2.47
61. S22G  2.49
62. G24S  2.51
63. S22D  2.51
64. G24Q  2.53
65. Y23T  2.56
66. Y23G  2.6
67. S22Q  2.61
68. L21M  2.65
69. G24P  2.77
70. L19C  2.8
71. E20W  2.81
72. L21H  2.84
73. G24K  2.88
74. L19M  3
75. E20P  3.09
76. D18P  3.1
77. V17R  3.11
78. S22A  3.17
79. L19Y  3.19
80. V17S  3.21
81. S22N  3.21
82. S22P  3.28
83. G24I  3.44
84. S22K  3.51
85. L19N  3.75
86. Y23K  3.9
87. V17Q  3.97
88. L19A  3.97
89. L21P  3.99
90. D18A  4
91. L19S  4
92. V17N  4.01
93. D18I  4.08
94. L19T  4.11
95. L19D  4.31
96. L19K  4.38
97. L19G  4.45
98. L19E  4.55
99. Y23M  5.21

Variants of: B2
Test: as above
Conditions: c terminus: a fixed tail appended

In order of falling protein stability index:
1. L4S  4.46
2. T2F  4.25
3. G10V  4.2
4. G3P  4.19
5. R19P  4.1
6. M23E  4.04
7. F22E  3.96
8. K5D  3.82
9. T2C  3.8
10. A13W  3.78
11. A13M  3.7
12. L4V  3.58
13. D20G  3.52
14. G10Y  3.51
15. K15H  3.5
16. V11I  3.5
17. F22Q  3.48
18. D20K  3.45
19. P6A  3.44
20. R24L  3.44
21. L4Y  3.37
22. F16Y  3.36
23. R24H  3.35
24. F16S  3.33
25. C12I  3.24
26. S21L  3.24
27. C9F  3.19
28. R24M  3.19
29. M23Q  3.15
30. M17T  3.13
31. Y7T  3.12
32. T2D  3.09
33. Y7K  3.09
34. K14Y  3.07
35. C12E  3.07
36. G3V  3.07
37. C12W  3.06
38. M17F  3.05
39. R24N  3.03
40. A13F  3.02
41. F16P  3
42. P6T  2.99
43. V11K  2.98
44. R24S  2.96
45. K15G  2.95
46. R24C  2.94
47. C12Y  2.91
48. S21G  2.9
49. R19K  2.88
50. W18P  2.88
51. K15R  2.86
52. H1I  2.85
53. Y7G  2.84
54. R19L  2.82
55. M23Y  2.82
56. R24V  2.82
57. R19A  2.81
58. W18H  2.81
59. M17I  2.8
60. T2Y  2.79
61. E8I  2.78
62. W18E  2.75
63. L4I  2.75
64. K5M  2.73
65. Y7L  2.73
66. T2P  2.72
67. Y7C  2.68
68. K5F  2.66
69. D20H  2.65
70. C9P  2.65
71. A13L  2.64
72. M23R  2.64
73. Y7A  2.64
74. P6S  2.62
75. G10N  2.62
76. E8T  2.61
77. P6M  2.6
78. E8P  2.59
79. V11Y  2.59
80. G10C  2.58
81. S21Y  2.58
82. F16C  2.57
83. C12T  2.56
84. K14C  2.55
85. F22K  2.54
86. K14Q  2.53
87. A13I  2.5
88. D20N  2.48
89. F22L  2.46
90. F16M  2.46
91. M17W  2.45
92. G10E  2.44
93. K5C  2.43
94. M23F  2.41
95. T2R  2.38
96. K5R  2.38
97. C9W  2.35
98. M17P  2.35
99. S21I  2.32
100. L4D  2.32
101. P6H  2.3
102. G3K  2.3
103. R19N  2.29
104. P6F  2.28
105. M23P  2.28
106. D20L  2.27
107. M17C  2.27
108. P6Q  2.26
109. C9N  2.26
110. K15N  2.26
111. S21H  2.26
112. E8M  2.26
113. H1T  2.24
114. S21A  2.23
115. G3T  2.23
116. C9K  2.22
117. E8F  2.2
118. G10K  2.19
119. G10Q  2.19
120. M17L  2.18
121. G10L  2.17
122. D20A  2.16
123. F16Q  2.16
124. G3A  2.15
125. R19T  2.13
126. R19S  2.12
127. G10F  2.12
128. P6Y  2.11
129. P6R  2.1
130. D20I  2.1
131. K15C  2.1
132. S21V  2.1
133. F16R  2.1
134. W18D  2.09
135. V11E  2.09
136. D20S  2.08
137. D20F  2.08
138. Y7M  2.08
139. F22P  2.07
140. L4H  2.07
141. R19Y  2.06
142. K15Q  2.05
143. W18R  2.05
144. R19Q  2.03
145. R19M  2.01
146. G10R  2.01
147. K14F  1.99
148. C9I  1.98
149. G10D  1.98
150. S21F  1.98
151. G10H  1.96
152. E8C  1.96
153. F16V  1.95
154. L4M  1.93
155. H1S  1.92
156. L4G  1.92
157. K14D  1.91
158. K14E  1.9
159. M17S  1.9
160. R24G  1.87
161. L4E  1.86
162. C9D  1.85
163. W18C  1.85
164. V11L  1.85
165. G10T  1.84
166. M17D  1.84
167. S21Q  1.83
168. P6D  1.82
169. Y7D  1.82
170. C9R  1.8
171. V11Q  1.8
172. K15W  1.79
173. F22A  1.79
174. R24I  1.79
175. C9T  1.78
176. S21E  1.78
177. W18M  1.78
178. K15V  1.77
179. K15I  1.77
180. H1F  1.76
181. W18K  1.75
182. V11R  1.75
183. T2G  1.74
184. F22T  1.74
185. C12P  1.73
186. D20P  1.72
187. R19I  1.71
188. R24K  1.71
189. D20V  1.69
190. M23G  1.69
191. W18T  1.68
192. Y7V  1.67
193. R24W  1.67
194. P6N  1.65
195. C9Q  1.65
196. G10M  1.64
197. M17Q  1.64
198. K5P  1.62
199. C12A  1.62
200. K15T  1.61
201. W18N  1.61
202. F16I  1.6
203. R19C  1.59
204. A13E  1.56
205. K5N  1.56
206. A13G  1.54
207. K15L  1.52
208. G3Q  1.52
209. F22N  1.49
210. S21N  1.49
211. G10S  1.47
212. C9A  1.46
213. P6I  1.45
214. F22H  1.45
215. C9S  1.42
216. M17R  1.39
217. F16N  1.39
218. R24D  1.37
219. V11N  1.37
220. G3D  1.36
221. Y7P  1.34
222. F16K  1.32
223. F16E  1.31
224. H1C  1.3
225. Y7E  1.3
226. E8Y  1.3
227. M17K  1.27
228. K14A  1.26
229. A13K  1.22
230. K14P  1.21
231. C12D  1.12
232. P6V  1.1
233. C9E  1.1
234. W18A  1.06
235. A13D  1
